The text below walks through data of PMC7156110, “The MAPK substrate MASS proteins regulate stomatal development in Arabidopsis” (PLoS Genetics, 2020).

The assay has as its target T1, MBP-YDA (recombinant YODA) (Arabidopsis thaliana, UniProt Q9CAD5 1-883).
T1 construct: MAPKK kinase YODA (YDA, AT1G63700), Arabidopsis thaliana; also called MBP-tagged YDA; source: E. coli BL21 (DE3), purified (Amylose Resin)
T1 sequence (looked up): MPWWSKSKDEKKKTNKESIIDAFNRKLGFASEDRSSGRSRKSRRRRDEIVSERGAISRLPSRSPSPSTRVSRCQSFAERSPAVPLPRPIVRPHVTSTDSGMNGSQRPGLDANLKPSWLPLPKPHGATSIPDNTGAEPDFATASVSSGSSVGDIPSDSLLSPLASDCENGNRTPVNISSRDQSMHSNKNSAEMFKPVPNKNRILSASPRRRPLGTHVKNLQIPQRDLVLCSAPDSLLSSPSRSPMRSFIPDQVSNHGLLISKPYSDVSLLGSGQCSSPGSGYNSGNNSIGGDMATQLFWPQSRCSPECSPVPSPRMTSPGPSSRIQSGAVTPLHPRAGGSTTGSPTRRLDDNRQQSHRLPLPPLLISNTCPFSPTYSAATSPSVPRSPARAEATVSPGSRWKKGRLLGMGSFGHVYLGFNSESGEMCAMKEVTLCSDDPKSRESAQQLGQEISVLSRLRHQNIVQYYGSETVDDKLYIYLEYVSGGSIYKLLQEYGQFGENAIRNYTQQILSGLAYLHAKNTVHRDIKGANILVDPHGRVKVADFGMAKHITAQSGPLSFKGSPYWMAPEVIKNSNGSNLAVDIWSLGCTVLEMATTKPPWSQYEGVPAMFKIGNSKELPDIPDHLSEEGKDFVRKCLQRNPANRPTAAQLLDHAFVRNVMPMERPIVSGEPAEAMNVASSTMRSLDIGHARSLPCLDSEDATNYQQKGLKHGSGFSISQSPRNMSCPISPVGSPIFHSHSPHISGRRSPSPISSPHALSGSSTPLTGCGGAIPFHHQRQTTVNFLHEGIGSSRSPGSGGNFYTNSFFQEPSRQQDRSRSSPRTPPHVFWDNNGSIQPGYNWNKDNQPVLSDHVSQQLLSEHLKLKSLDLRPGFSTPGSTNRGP
Put plainly: pull-down; MBP-YDA held on Amylose Resin, incubated with His-MASS2 at 4°C for 2 h; washing buffer 50 mM Tris-HCl pH 7.5, 10 mM MgCl2, 150 mM NaCl, 1 mM DTT; blots with anti-His and anti-MBP. The note with it: both partners purified.

B1: His-MASS2.3 (MASS2 splicing variant 3, recombinant) (natural protein, Arabidopsis thaliana, UniProt Q9XI29 1-148, looked up)
chain: MEGLQRSTISFRRQGSSGIVFDDRLIAELNKSGNNEQKDESQRDEQPKPMSESSEQVKPIDEKDKLRPIKTGGGAPGGIERSRSNGGGAQRHHRTTGRVSPAVDPPSPRISSCGCCSAFGKNPPGKKVNPRKRPPKRRSRRRIVTKKR
notes: source: E. coli BL21 (DE3), purified (Ni-NTA agarose)
Turning to B1, the binding result is reported as “binds”.
